The values that follow come from PMC8596624.

The target in data set [1] is T1, WHTS, trimeric spike protein, wild-type (Wuhan) (SARS-CoV-2 (Wuhan), UniProt P0DTC2 14-1213). Nature of the data set: electrochemical impedance.
In data set [2] the target is WH-S1, spike S1 subunit, wild-type (SARS-CoV-2 (Wuhan), UniProt P0DTC2 14-685). In words: dot blot.
Data set [3] deals with T1, WHTS, trimeric spike protein, wild-type …. In words: electrochemical impedance. The source holds these as a separate data set.
For data set [4] the target is unchanged. Nature of the data set: dot blot.
Data set [5] shares this target. In words: electrochemical impedance. This is another data set of the same source.

B1: MSA1T-SH (structured_DNA)
DNA: TTCCGGTTAATTTATGCTCTACCCGTCCACCTACCGGAATTTT
modifications: 3' thiol (3ThioMC3-D)
Regarding B1, in data set [1], the binding result is reported as “binds”.

B2: MSA5 (structured_DNA)
DNA: TTACGTCAAGGTGTCACTCCACGGGTTTGGCGTCGGGCCTGGCGGGGGGATAGTGCGGTGGAAGCATCTCTTTGGCGTG
With B2, the binding result in data set [2] is listed as “binds”.

B3: DSA1N5-SH (structured_DNA)
DNA: TTCCGGTTAATTTATGCTCTACCCGTCCACCTACCGGAATTTTTTTTTTTTTTTTTTTTTTTTTTTTTTACGGGTTTGGCGTCGGGCCTGGCGGGGGGATAGTGCGGTTTTT
modifications: 3' thiol (3ThioMC3-D)
For B3, in data set [3], the binding result is reported as “binds”.

B4: MSA1 (structured_DNA)
DNA: TTACGTCAAGGTGTCACTCCCACTTTCCGGTTAATTTATGCTCTACCCGTCCACCTACCGGAAGCATCTCTTTGGCGTG
With B4, in data set [2], the binding result is given as “binds”.

B5: DMC (ssDNA)
DNA: CTATATCCCTTTAAGCCTGTGGGTCCACGAATCTACCTCTTTTTTTTTTTTTTTTTTTTTTTTTTTTTTGCGTTCGGAGTGGGTCGTGCGGCGCGGGACGAGTGGTGT
For the molecule B5, the binding result in data set [4] was “no binding”.

B6: M1C (ssDNA)
DNA: CTATATCCCTTTAAGCCTGTGGGTCCACGAATCTACCTC
B6: the binding result in data set [4] is reported as “no binding”.

B7: M5C (ssDNA)
DNA: GCGTTCGGAGTGGGTCGTGCGGCGCGGGACGAGTGGTGT
For the molecule B7, the binding result in data set [4] is reported as “no binding”.

B8: MSA1T (structured_DNA)
DNA: TTCCGGTTAATTTATGCTCTACCCGTCCACCTACCGGAA
In data set [4], B8 came in with a Kd of 11.9 ± 1.8 nM.

B9: MSA5T-SH (structured_DNA)
DNA: ACGGGTTTGGCGTCGGGCCTGGCGGGGGGATAGTGCGGTTTTT
modifications: 3' thiol (3ThioMC3-D)
Take B9: the binding result in data set [5] was “binds”.
